# T1: human C1s (human, UniProt P09871 16-688)
# T1 construct: also called hC1s; serum-derived human C1s (CompTech)
# T1 sequence: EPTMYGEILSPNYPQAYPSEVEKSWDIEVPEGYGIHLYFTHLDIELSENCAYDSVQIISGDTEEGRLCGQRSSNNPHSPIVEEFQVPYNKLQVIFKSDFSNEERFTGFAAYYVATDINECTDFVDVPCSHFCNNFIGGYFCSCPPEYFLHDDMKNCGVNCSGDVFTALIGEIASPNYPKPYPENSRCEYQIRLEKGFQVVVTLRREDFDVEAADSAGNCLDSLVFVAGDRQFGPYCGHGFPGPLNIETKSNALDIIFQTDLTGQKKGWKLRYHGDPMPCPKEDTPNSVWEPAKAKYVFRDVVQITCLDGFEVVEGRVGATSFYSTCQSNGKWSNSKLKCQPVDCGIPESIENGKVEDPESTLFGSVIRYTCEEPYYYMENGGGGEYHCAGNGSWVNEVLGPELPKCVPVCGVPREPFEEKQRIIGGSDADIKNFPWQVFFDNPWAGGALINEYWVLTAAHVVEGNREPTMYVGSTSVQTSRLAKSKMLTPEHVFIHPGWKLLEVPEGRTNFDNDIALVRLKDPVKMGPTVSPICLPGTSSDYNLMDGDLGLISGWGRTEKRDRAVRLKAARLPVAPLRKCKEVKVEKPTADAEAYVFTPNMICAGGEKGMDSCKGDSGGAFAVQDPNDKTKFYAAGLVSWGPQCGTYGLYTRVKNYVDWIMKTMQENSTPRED
# T2: human C1s (human, UniProt P09871 16-688)
# T2 construct: Analyte in the Biacore assays; also called hC1s; serum-derived human C1s (CompTech)
# T2 sequence: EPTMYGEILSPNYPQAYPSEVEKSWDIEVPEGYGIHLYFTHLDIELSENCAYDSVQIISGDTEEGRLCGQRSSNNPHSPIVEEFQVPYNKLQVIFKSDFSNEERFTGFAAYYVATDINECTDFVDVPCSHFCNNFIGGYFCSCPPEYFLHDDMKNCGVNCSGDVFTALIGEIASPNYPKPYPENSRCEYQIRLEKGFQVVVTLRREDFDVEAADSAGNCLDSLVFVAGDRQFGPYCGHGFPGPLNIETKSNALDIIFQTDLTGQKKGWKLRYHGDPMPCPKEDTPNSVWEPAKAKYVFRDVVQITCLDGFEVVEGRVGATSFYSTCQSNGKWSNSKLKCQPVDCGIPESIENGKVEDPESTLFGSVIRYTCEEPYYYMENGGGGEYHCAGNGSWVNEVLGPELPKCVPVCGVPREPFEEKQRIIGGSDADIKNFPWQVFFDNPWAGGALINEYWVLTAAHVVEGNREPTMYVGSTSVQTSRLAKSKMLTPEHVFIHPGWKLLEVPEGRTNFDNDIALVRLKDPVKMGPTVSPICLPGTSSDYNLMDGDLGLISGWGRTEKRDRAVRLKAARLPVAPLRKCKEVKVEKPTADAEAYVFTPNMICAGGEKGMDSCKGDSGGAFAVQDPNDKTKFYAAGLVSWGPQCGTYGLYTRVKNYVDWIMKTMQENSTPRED
# Assays:
# human C1s [1] = target: T1, human C1s; test: SPR, Ab captured; pH 5.8, 3 uM Ca
# Experimental: (§1) All variants were transiently expressed and purified by the method described above. The binding affinity of each histidine-substituted variant at pH 7.4 and pH 5.8 was determined at 37 degrees C. using Biacore T200 instrument (GE Healthcare). Recombinant Protein A/G (Pierce) was immobilized onto all flow cells of a CM4 sensor chip using an amine coupling kit (GE Healthcare). Antibodies and analytes were prepared in 7(+) buffer (20 mM ACES, 150 mM NaCl, 1.2 mM CaCl2, 0.05% Tween 20, 0.005% NaN3, pH 7.4), 5(+) buffer (20 mM ACES, 150 mM NaCl, 1.2 mM CaCl2, 0.05% Tween 20, 0.005% NaN3, pH 5.8), or 5(−) buffer (20 mM ACES, 150 mM NaCl, 3 micro M CaCl2, 0.05% Tween 20, 0.005% NaN3, pH 5.8). Each antibody was captured onto the sensor surface by protein A/G. Antibody capture levels were aimed at 200 resonance unit (RU). Serum-derived human C1s (CompTech) or recombinant C1s prepared in EXAMPLE 1 was injected at 50 nM, followed by dissociation. The sensor surface was regenerated in each cycle with 10 mM Glycine-HCl, pH 1.5. […] The ratio of KD 5.8+ to KD 7.4+(“KD 5+/7+”) and that of KD 5.8− to KD 7.4+(“KD 5−/7+”) were calculated. When the KD 5+/7+ or KD 5−/7+ of a variant is larger than that of the parent antibody IPN009VH2-SG4GK/IPN009VK3-SK1, that variant is considered to be “pH”- or “pH and Ca”-dependent, respectively. When binding response in 5(+) buffer and/or in 5(−) buffer of a variant is much lower than that of IPN09VH2/IPN009VK3, that variant is also considered as “pH”- and/or “pH and Ca”-dependent. Therefore, such mutations are effective to generate “pH”- and/or “pH and Ca”-dependent antibody. To further enhance “pH” and/or “pH and Ca” dependency, a combination of histidine mutations was conducted. Antibodies with combinations of histidine mutations were evaluated using Biacore by the method described above.
# human C1s [2] = target: T1, human C1s; test: SPR; KD pH 5.8 1.2 mM Ca / KD pH 7.4 1.2 mM Ca
# Experimental: as §1
# human C1s [3] = target: T1, human C1s; test: SPR; KD pH 5.8 3 uM Ca / KD pH 7.4 1.2 mM Ca
# Experimental: as §1
# human C1s [4] = target: T1, human C1s; test: SPR, Ab captured; pH 7.4, 1.2 mM Ca
# Summary of the method: (§2)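 Histidine-substituted antibodies were captured on a protein A/G CM4 chip (~200 RU) and serum-derived or recombinant human C1s was injected at 50 nM, 37 °C. Running buffer was 20 mM ACES, 150 mM NaCl with 1.2 mM CaCl2 at pH 7.4 or 5.8, or 3 µM CaCl2 at pH 5.8. Ratios are KD pH 5.8 over KD pH 7.4.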
# human C1s [5] = target: T1, human C1s; test: SPR, Ab captured; pH 5.8, 3 uM Ca; remark: listed apart in the source
# Summary of the method: as §2
# human C1s [6] = target: T1, human C1s; test: SPR, Ab captured; pH 5.8, 1.2 mM Ca
# Experimental: as §1
# human C1s [7] = target: T1, human C1s; test: SPR, Ab captured; pH 7.4, 1.2 mM Ca; remark: listed apart in the source
# Experimental: as §1
# human C1s [8] = target: T1, human C1s; test: SPR, Ab captured; pH 5.8, 1.2 mM Ca; remark: listed apart in the source
# Summary of the method: as §2
# human C1s [9] = target: T1, human C1s; test: SPR; KD pH 5.8 3 uM Ca / KD pH 7.4 1.2 mM Ca; remark: listed apart in the source
# Summary of the method: as §2
# human C1s [10] = target: T1, human C1s; test: SPR, Ab captured; pH 7.4, 1.2 mM Ca; remark: listed apart in the source
# Summary of the method: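 Antibody captured on protein A/G (~200 RU) on Biacore T200 at 37C; serum-derived or recombinant human C1s injected at 50 nM, then dissociation. KD measured at pH 7.4 with 1.2 mM Ca and at pH 5.8 with 1.2 mM or 3 uM Ca; KD ratios pH 5.8/pH 7.4 calculated.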
# human C1s [11] = target: T1, human C1s; test: SPR; KD pH 5.8 1.2 mM Ca / KD pH 7.4 1.2 mM Ca; remark: listed apart in the source
# Summary of the method: as §2
# human C1s [12] = target: T2, human C1s; test: SPR (Biacore T200, 37C), Ab captured on protein A/G; pH 5.8, 1.2 mM Ca
# Experimental: as §1
# human C1s [13] = target: T2, human C1s; test: SPR (Biacore T200, 37C), Ab captured on protein A/G; pH 5.8, 3 uM Ca
# Experimental: as §1
# human C1s [14] = target: T2, human C1s; test: SPR; KD at pH 5.8 (3 uM Ca) over KD at pH 7.4 (1.2 mM Ca)
# Experimental: as §1
# human C1s [15] = target: T2, human C1s; test: SPR; KD at pH 5.8 (1.2 mM Ca) over KD at pH 7.4 (1.2 mM Ca)
# Experimental: as §1
# human C1s [16] = target: T2, human C1s; test: SPR (Biacore T200, 37C), Ab captured on protein A/G; pH 7.4, 1.2 mM Ca
# Experimental: as §1
binder,measurement,setting,value
"C1_IPN009VH2-SG4GK/IPN009VK3-SK1 (antibody, human IgG4 S228P, kappa, parent antibody; variable regions as described in WO2016164358; also called IPN009VH2/IPN009VK3; IPN09VH2/IPN09VK3) heavy: not shown light: QIVLTQSPATLSLSPGERATLSCTASSSVSSSYLHWYQQKPGKAPKLWIYSTSNLASGVPSRFSGSGSGTDYTLTISSLQPEDFATYYCHQYYRLPPITFGQGTKLEIKRTVAAPSVFIFPPSDEQLKSGTASVVCLLNNFYPREAKVQWKVDNALQSGNSQESVTEQDSKDSTYSLSSTLTLSKADYEKHKVYACEVTHQGLSSPVTKSFNRGEC",koff,human C1s [1],0.00204 s⁻¹
same,kon,human C1s [1],606000 M⁻¹ s⁻¹
same,KD 5(+)/7(+),human C1s [2],0.2
same,KD 5(-)/7(+),human C1s [3],4.1
same,koff,human C1s [4],0.000298 s⁻¹
same,kon,human C1s [4],362000 M⁻¹ s⁻¹
same,koff,human C1s [5],0.00204 s⁻¹
same,kon,human C1s [5],606000 M⁻¹ s⁻¹
same,koff,human C1s [6],0.000108 s⁻¹
same,kon,human C1s [6],662000 M⁻¹ s⁻¹
same,koff,human C1s [7],0.000298 s⁻¹
same,kon,human C1s [7],362000 M⁻¹ s⁻¹
same,koff,human C1s [8],0.000108 s⁻¹
same,kon,human C1s [8],662000 M⁻¹ s⁻¹
same,KD 5(-)/7(+),human C1s [9],4.1
same,koff,human C1s [10],0.000298 s⁻¹
same,kon,human C1s [10],362000 M⁻¹ s⁻¹
same,KD 5(+)/7(+),human C1s [11],0.2
"C1_IPN009VH2-SG4GK/IPN93L0023-SK1 (antibody, human IgG4 S228P, kappa, name in Kabat numbering, also called IPN009VH2/IPN93L0023) heavy: not shown light: QIVLTQSPATLSLSPGERATLSCTASSSVSSSYLHWYQQKPGKAPKLWIYSTSNLASGVPSRFSGSGSGTDYTLTISSLQPEDFATYYCHQYYRHPPITFGQGTKLEIKRTVAAPSVFIFPPSDEQLKSGTASVVCLLNNFYPREAKVQWKVDNALQSGNSQESVTEQDSKDSTYSLSSTLTLSKADYEKHKVYACEVTHQGLSSPVTKSFNRGEC",Kd,human C1s [1],13.8 nM
same,koff,human C1s [1],0.092 s⁻¹
same,kon,human C1s [1],6.67e+06 M⁻¹ s⁻¹
same,KD 5(+)/7(+),human C1s [2],0.8
same,KD 5(-)/7(+),human C1s [3],6.3
same,Kd,human C1s [6],1.83 nM
same,koff,human C1s [6],0.00131 s⁻¹
same,kon,human C1s [6],716000 M⁻¹ s⁻¹
same,Kd,human C1s [7],2.18 nM
same,koff,human C1s [7],0.000725 s⁻¹
same,kon,human C1s [7],332000 M⁻¹ s⁻¹
"C1_IPN92H0307-SG4GK/IPN93L0058-SK1 (antibody, human IgG4 S228P, kappa, also called IPN92H0307/IPN93L0058) heavy: not shown light: QIVLTQSPATLSLSPGERATLSCTASSEVSSSYLHWYQQKPGKAPKLWIYSTSNLASGVPSRFSGSGSGTDYTLTISSLQPEDFATYYCHQYYRLHPITFGQGTKLEIKRTVAAPSVFIFPPSDEQLKSGTASVVCLLNNFYPREAKVQWKVDNALQSGNSQESVTEQDSKDSTYSLSSTLTLSKADYEKHKVYACEVTHQGLSSPVTKSFNRGEC",koff,human C1s [12],0.0142 s⁻¹
same,kon,human C1s [12],731000 M⁻¹ s⁻¹
same,koff,human C1s [13],0.00196 s⁻¹
same,kon,human C1s [13],396000 M⁻¹ s⁻¹
same,KD 5(-)/7(+),human C1s [14],2.56
same,KD 5(+)/7(+),human C1s [15],10.1
same,koff,human C1s [16],0.000863 s⁻¹
same,kon,human C1s [16],446000 M⁻¹ s⁻¹

# Reference: patent publication US20210032365A1 (Chugai, published 2021)
